How the values were obtained:
[1] = molecular target: tissue factor (TF) antigen (UniProt P13726); test: SPR (ProteOn XPR36): Fab captured via His tag on anti-penta-His, TF as analyte, 1:1 fit; estimated value, taken from the same Fab with another L chain tag
[2] = molecular target: tissue factor (TF) antigen (UniProt P13726); test: SPR; log ratio against wild-type D3H44 Fab; estimated value
[3] = molecular target: tissue factor (TF) antigen (UniProt P13726); test: SPR (ProteOn XPR36): Fab captured via His tag on anti-penta-His, TF as analyte, 1:1 fit
[4] = molecular target: tissue factor (TF) antigen (UniProt P13726); test: SPR; log ratio against wild-type D3H44 Fab
[5] = molecular target: tissue factor (TF) antigen (UniProt P13726); test: SPR (ProteOn XPR36), His-tagged Fab captured on anti-penta His, TF as analyte; against wild-type D3H44 Fab
[6] = molecular target: tissue factor (TF) antigen (UniProt P13726); test: SPR (ProteOn XPR36), His-tagged Fab captured on anti-penta His, TF as analyte, 1:1 fit
[7] = molecular target: tissue factor (TF) antigen (UniProt P13726); test: SPR, Fab captured on anti-penta-His surface, TF as analyte, 1:1 fit; Fab batch C
[8] = molecular target: tissue factor (TF) antigen (UniProt P13726); test: SPR, Fab captured on anti-penta-His surface, TF as analyte, 1:1 fit; Fab batch C; against wild-type D3H44 Fab
[9] = molecular target: tissue factor (TF) antigen (UniProt P13726); test: SPR (ProteOn XPR36), Fab captured by His tag on anti-penta-His surface, TF injected as analyte, 1:1 fit
[10] = molecular target: tissue factor (TF) antigen (UniProt P13726); test: SPR (ProteOn XPR36), Fab captured by His tag on anti-penta-His surface, TF injected as analyte; against wild-type D3H44 Fab
[11] = molecular target: tissue factor (TF) antigen (UniProt P13726); test: SPR, Fab captured on anti-penta-His, TF as analyte, 1:1 fit
[12] = molecular target: tissue factor (TF) antigen (UniProt P13726); test: vs wild-type D3H44 Fab (KD 0.157 nM); SPR, Fab captured on anti-penta-His, TF as analyte

Sequence of tissue factor (TF) antigen (P13726 33-251 limits assumed): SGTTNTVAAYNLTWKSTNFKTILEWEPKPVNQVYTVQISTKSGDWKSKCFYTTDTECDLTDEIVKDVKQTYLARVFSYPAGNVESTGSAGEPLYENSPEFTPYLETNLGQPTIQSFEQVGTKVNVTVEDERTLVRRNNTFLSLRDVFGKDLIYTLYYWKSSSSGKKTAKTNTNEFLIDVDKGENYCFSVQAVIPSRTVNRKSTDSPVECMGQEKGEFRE

“D3H44 Fab heterodimer, H L143D_K145T_Q179E / L T178R (H1L1 of LCCA sets 9579 and 9575)” gave a Kd [1] of 280 pM, a Change in KD with respect to wild type (-(log(KD design) - log(KD wt))) [2] of -0.25 and a Kd [3] of 280 pM. It also gave a Change in KD with respect to wild type (-(log(KD design) - log(KD wt))) [4] of -0.25.

In the case of “D3H44 Fab heterodimer, H1 L143K_D146G / L1 Q124E_V133D (H1L1 Fab of LCCA Set # 9734)”, the Change in median values of KD of h1|1 Fab heterodimer compared to wild type (-(log(KD design)-log(KD wt))) [5] is reported as -0.22 and the Kd [6] is reported as 260 pM.

For “D3H44 H1L1 Fab heterodimer of LCCA Set # 9644 (H1 L143E_K145T_Q179D_S188L; L1 Q124R_Q160K_T178R)”, the Kd [7] was 130 pM and the change in median KD compared to wild type, -(log(KD design)-log(KD wt)) [8] was 0.09.

“D3H44 H1L1 Fab heterodimer of LCCA Sets # 9092, 9091 and 9090 (H1 L124A_L143F_Q179K, L1 Q124E_V133W_S176T_T178E_T180E)” gave a Kd [9] of 160 pM and a change in median KD compared to wild type, -(log(KD design)-log(KD wt)) [10] of -0.02 log.

“D3H44 Fab heterodimer, H L143E_K145T_Q179E / L Q124K_T178R (H1L1 of LCCA sets 9645 and 9648)” gave a Kd [1] of 140 pM, a Change in KD with respect to wild type (-(log(KD design) - log(KD wt))) [2] of 0.05 and a Kd [3] of 140 pM. For the same substance, the Change in KD with respect to wild type (-(log(KD design) - log(KD wt))) [4] was 0.05.

Substance “D3H44 H1L1 Fab heterodimer of LCCA Set # 9103 (H1 L124A_S186K, L1 Q124E_V133W_T180E)” has a Kd [9] of 150 pM and a change in median KD compared to wild type, -(log(KD design)-log(KD wt)) [10] of 0.02 log.

Substance “D3H44 H1L1 Fab heterodimer of LCCA Set # 9987 (H1 L143E_K145T; L1 Q124R_T178R)” has a Kd [7] of 110 pM and a change in median KD compared to wild type, -(log(KD design)-log(KD wt)) [8] of 0.15.

“H1L1 Fab heterodimer of LCCA sets 9869, 9871, 9874, 9876 and 9879 (D3H44 Fab, H1 S186R, L1 Q124E_Q160E_T180E)” showed a Kd [11] of 50 pM and a change in median KD compared to wild type, -(log(KD design)-log(KD wt)) [12] of 0.51.

Substance “D3H44 H1L1 Fab heterodimer of LCCA Set # 9116 (H1 L124E_A139W, L1 F116A_V133G_L135V_S176R)” has a Kd [9] of 160 pM and a change in median KD compared to wild type, -(log(KD design)-log(KD wt)) [10] of -0.02 log.

“H1L1 Fab heterodimer of LCCA set 10552 (D3H44 Fab, H1 L45P_L143E_K145T_H172R, L1 P44F_Q124R_Q160K_T178R)” gave a Kd [11] of 290 pM and a change in median KD compared to wild type, -(log(KD design)-log(KD wt)) [12] of -0.27.

With “D3H44 Fab heterodimer, H L143E_K145T_Q179D / L Q124R_Q160K_T178R (H1L1 of LCCA set 9623)” the Kd [1] was 60 pM and the Change in KD with respect to wild type (-(log(KD design) - log(KD wt))) [2] was 0.39.

With “D3H44 H1L1 Fab heterodimer of LCCA Sets # 9743 and 9744 (H1 L143R, L1 Q124E_V133E_S176L)” the Kd [9] was 280 pM and the change in median KD compared to wild type, -(log(KD design)-log(KD wt)) [10] was -0.25 log.

“D3H44 Fab heterodimer, H1 H172R_S186R / L1 Q38E_Q124E_Q160E_T180E (H1L1 Fab of LCCA Set # 9075)” showed a Change in median values of KD of h1|1 Fab heterodimer compared to wild type (-(log(KD design)-log(KD wt))) [5] of -0.03 and a Kd [6] of 170 pM.

“H1L1 Fab heterodimer of LCCA sets 9546 and 9547 (D3H44 Fab, H1 L124R_S186R, L1 V133G_S176D_T180E)” gave a Kd [11] of 240 pM and a change in median KD compared to wild type, -(log(KD design)-log(KD wt)) [12] of -0.18.

“D3H44 Fab heterodimer, H1 D146G_Q179K / L1 Q38E_Q124E_Q160E_T180E (H1L1 Fab of LCCA Set # 9065)” was tested, and the Change in median values of KD of h1|1 Fab heterodimer compared to wild type (-(log(KD design)-log(KD wt))) [5] was -0.05 and the Kd [6] was 180 pM.

For “D3H44 Fab heterodimer, H1 L124E_L143D_K145M / L1 Q124K_V133G_Q160K_S176R (H1L1 Fab of LCCA Set # 9170, 9171 and 9172)”, the Change in median values of KD of h1|1 Fab heterodimer compared to wild type (-(log(KD design)-log(KD wt))) [5] was -0.24 and the Kd [6] was 270 pM.

“D3H44 H1L1 Fab heterodimer of LCCA Set # 9784 (H1 Q179K; L1 Q124E_T178E)” gave a Kd [7] of 140 pM and a change in median KD compared to wild type, -(log(KD design)-log(KD wt)) [8] of 0.05.

In the case of “D3H44 H1L1 Fab heterodimer of LCCA Set # 9575 (H1 L143D_K145T_Q179E, L1 T178R)”, the Kd [9] is reported as 280 pM and the change in median KD compared to wild type, -(log(KD design)-log(KD wt)) [10] is reported as -0.25 log.

In the case of “H1L1 Fab heterodimer of LCCA sets 9735 and 9737 (D3H44 Fab, H1 L143R, L1 Q124E_V133E)”, the Kd [11] is reported as 200 pM and the change in median KD compared to wild type, -(log(KD design)-log(KD wt)) [12] is reported as -0.09.
